Columns and labels:
[1] = molecular target: human FcγRIIIa (F158 allele) (human) (UniProt P08637)
[2] = molecular target: human FcγRIIIa (V158 allele) (human) (UniProt P08637)
[3] = molecular target: human FcγRIIIa (F158 allele) (human) (UniProt P08637); test: MSD [cont'd]
[4] = molecular target: human FcγRIIa (R131 allele) (human) (UniProt P12318); test: MSD [cont'd]
[5] = molecular target: human FcγRIIIb (human) (UniProt O75015); test: MSD [cont'd]
[6] = molecular target: human FcγRIIb (human) (UniProt P31994); test: MSD [cont'd]
[7] = molecular target: human FcγRIIa (H131 allele) (human) (UniProt P12318); test: MSD [cont'd]
[8] = molecular target: human FcRn (human) (UniProt P55899); test: MSD [cont'd]
[9] = molecular target: human FcγRIIIa (V158 allele) (human) (UniProt P08637); test: MSD [cont'd]
[10] = molecular target: human FcγRIIIa (F158 allele) (human) (UniProt P08637); test: MSD electrochemiluminescence binding assay; column IIIA_F
[11] = molecular target: human FcγRIIa (H131 allele) (human) (UniProt P12318); test: MSD electrochemiluminescence binding assay; column IIA_H
[12] = molecular target: human FcγRIIIb (human) (UniProt O75015); test: MSD electrochemiluminescence binding assay; column IIIB
[13] = molecular target: human FcγRIIa (R131 allele) (human) (UniProt P12318); test: MSD electrochemiluminescence binding assay; column IIA_R
[14] = molecular target: human FcγRIIIa (V158 allele) (human) (UniProt P08637); test: MSD electrochemiluminescence binding assay; column IIIA_V
[15] = molecular target: human FcRn (human) (UniProt P55899); test: MSD electrochemiluminescence binding assay; column FcRn
[16] = molecular target: human FcγRIIb (human) (UniProt P31994); test: MSD electrochemiluminescence binding assay; column IIB
[17] = molecular target: human FcRn (human) (UniProt P55899); test: MSD, pH 6 [cont'd]
[18] = molecular target: human FcγRIIa (R131 allele) (human) (UniProt P12318); test: MSD
[19] = molecular target: human FcγRIIb (human) (UniProt P31994); test: MSD
[20] = molecular target: human FcγRIIa (H131 allele) (human) (UniProt P12318); test: MSD
[21] = molecular target: human C1q (human) (UniProt P02745); test: MSD [cont'd]
[22] = molecular target: human FcγRIIIa (F158 allele) (human) (UniProt P08637); test: MSD
[23] = molecular target: human FcγRIIIb (human) (UniProt O75015); test: MSD
[24] = molecular target: human FcγRIIIa (V158 allele) (human) (UniProt P08637); test: MSD

human FcγRIIa (H131 allele) (human), sequence (P12318 34-218 limits assumed): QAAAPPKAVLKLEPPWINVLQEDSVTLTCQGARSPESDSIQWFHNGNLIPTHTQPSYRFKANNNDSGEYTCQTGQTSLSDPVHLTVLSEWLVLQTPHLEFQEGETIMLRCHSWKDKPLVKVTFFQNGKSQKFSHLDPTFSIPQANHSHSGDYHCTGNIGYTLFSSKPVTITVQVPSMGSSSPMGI
human FcRn (human), sequence (P55899 24-297 limits assumed, chain 1 of 2): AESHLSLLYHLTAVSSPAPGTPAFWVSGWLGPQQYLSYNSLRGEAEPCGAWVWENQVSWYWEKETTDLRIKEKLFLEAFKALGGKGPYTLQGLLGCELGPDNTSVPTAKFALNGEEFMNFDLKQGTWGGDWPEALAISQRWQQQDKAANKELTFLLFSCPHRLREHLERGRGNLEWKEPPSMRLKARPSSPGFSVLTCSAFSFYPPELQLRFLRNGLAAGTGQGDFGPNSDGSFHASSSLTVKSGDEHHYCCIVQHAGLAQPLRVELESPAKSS
human FcRn (human), sequence (chain, as listed by the source limits assumed, chain 2 of 2): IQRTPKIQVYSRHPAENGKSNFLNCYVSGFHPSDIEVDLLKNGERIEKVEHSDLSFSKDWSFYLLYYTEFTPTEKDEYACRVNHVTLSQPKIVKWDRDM
human FcγRIIb (human), sequence (P31994 43-217 limits assumed): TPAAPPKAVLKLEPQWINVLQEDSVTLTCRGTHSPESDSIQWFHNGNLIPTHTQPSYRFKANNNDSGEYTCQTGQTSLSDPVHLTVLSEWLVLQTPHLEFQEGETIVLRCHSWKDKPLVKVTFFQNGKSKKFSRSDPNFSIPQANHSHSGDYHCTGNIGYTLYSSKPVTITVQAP
human FcγRIIa (R131 allele) (human), sequence (P12318 34-218 H167R limits assumed): as the sequence (P12318 34-218 limits assumed) above, with H134R counted along it
human FcγRIIIa (F158 allele) (human), sequence (P08637 17-208 limits assumed): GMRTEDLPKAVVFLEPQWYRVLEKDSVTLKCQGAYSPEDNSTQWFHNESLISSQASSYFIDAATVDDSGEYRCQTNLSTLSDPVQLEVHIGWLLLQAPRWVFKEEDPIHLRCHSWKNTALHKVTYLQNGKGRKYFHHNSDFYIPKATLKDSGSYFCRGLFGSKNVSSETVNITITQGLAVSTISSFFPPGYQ
human C1q (human), sequence (P02745 23-245 limits assumed, chain 1 of 3): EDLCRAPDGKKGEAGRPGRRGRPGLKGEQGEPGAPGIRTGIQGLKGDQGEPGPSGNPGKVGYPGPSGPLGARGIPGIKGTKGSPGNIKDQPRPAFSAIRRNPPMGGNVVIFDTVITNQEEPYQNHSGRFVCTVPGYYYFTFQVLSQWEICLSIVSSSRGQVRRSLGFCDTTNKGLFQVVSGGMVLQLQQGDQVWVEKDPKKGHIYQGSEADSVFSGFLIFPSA
human C1q (human), sequence (P02746 28-253 limits assumed, chain 2 of 3, further chain): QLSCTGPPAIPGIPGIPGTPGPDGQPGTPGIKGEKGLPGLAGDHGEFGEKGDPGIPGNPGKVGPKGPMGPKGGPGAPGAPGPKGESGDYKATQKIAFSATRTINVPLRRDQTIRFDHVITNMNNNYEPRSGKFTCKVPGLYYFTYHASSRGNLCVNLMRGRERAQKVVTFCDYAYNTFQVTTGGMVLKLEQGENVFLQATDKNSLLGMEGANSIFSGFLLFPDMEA
human C1q (human), sequence (P02747 29-245 limits assumed, chain 3 of 3, further chain): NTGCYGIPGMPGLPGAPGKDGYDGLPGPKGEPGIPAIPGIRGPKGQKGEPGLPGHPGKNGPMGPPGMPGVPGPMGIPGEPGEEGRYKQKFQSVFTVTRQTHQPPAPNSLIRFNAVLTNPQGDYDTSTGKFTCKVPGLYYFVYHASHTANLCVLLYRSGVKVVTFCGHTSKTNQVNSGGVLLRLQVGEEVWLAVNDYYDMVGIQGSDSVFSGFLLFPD
human FcγRIIIb (human), sequence (O75015 17-200 limits assumed): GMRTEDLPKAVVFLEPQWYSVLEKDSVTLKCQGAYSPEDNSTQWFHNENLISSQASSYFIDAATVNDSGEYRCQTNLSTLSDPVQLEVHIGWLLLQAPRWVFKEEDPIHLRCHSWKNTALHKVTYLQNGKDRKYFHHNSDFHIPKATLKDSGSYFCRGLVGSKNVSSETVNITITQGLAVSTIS
human FcγRIIIa (V158 allele) (human), sequence (P08637 17-208 F176V limits assumed): as the sequence (P08637 17-208 limits assumed) above, with F160V counted along it

| Substance | fold to wt-fucose [3] | fold to wt-fucose [4] | fold to wt-fucose [5] | fold to wt-fucose [6] | fold to wt-fucose [7] | fold to wt-fucose [9] | fold-change to WT Fc [17] | fold-change to WT Fc [18] | fold-change to WT Fc [19] | fold-change to WT Fc [20] | fold-change to WT Fc [3] | fold-change to WT Fc [21] | fold-change to WT Fc [9] | other results |
| --- | --- | --- | --- | --- | --- | --- | --- | --- | --- | --- | --- | --- | --- | --- |
| G236A_P230A_Q295E-afuc (antibody) | 26.7 fold | 6.04 fold | 1.8 fold | 0.67 fold | 8.94 fold | 10.8 fold |  |  |  |  |  |  |  | FcγR reporter signaling, fold to wt-fucose [cont'd] [1]: 10.9 fold; FcγR reporter signaling, fold to wt-fucose [cont'd] [2]: 5.54 fold; fold to wt-fucose [8]: 1.02 fold |
| G236S-afuc (antibody) | 10.6 fold | 4.39 fold | 1.37 fold | 1.08 fold | 7.37 fold | 4.63 fold |  |  |  |  |  |  |  | FcγR reporter signaling, fold to wt-fucose [cont'd] [2]: 2.86 fold; fold to wt-fucose [8]: 0.85 fold |
| G236S_G420V_G446E_L309T-afuc (antibody) | 3.35 fold | 1.7 fold | 0.86 fold | 0.44 fold | 3.62 fold | 1.99 fold |  |  |  |  |  |  |  | FcγR reporter signaling, fold to wt-fucose [cont'd] [1]: 4.41 fold; FcγR reporter signaling, fold to wt-fucose [cont'd] [2]: 4 fold; fold to wt-fucose [8]: 0.77 fold |
| G236A_E272Y_S298N (antibody) |  |  |  |  |  |  |  |  |  |  |  |  |  | fold-change in binding vs wild-type IgG1 [10]: 0.31; fold-change in binding vs wild-type IgG1 [11]: 0.63; fold-change in binding vs wild-type IgG1 [12]: 0.62; fold-change in binding vs wild-type IgG1 [13]: 0.38; fold-change in binding vs wild-type IgG1 [14]: 0.06; fold-change in binding vs wild-type IgG1 [15]: 0.98; fold-change in binding vs wild-type IgG1 [16]: 0.19 |
| G236A_R292P_A431G (antibody) |  |  |  |  |  |  | 0.674 fold | 0.939 fold | 0.511 fold | 5.21 fold | 0.569 fold | 0.1 fold | 0.394 fold |  |
| G236S_R292P_Y300L-afuc (antibody) | 5.47 fold | 1.5 fold | 1.04 fold | 0.72 fold | 8.13 fold | 3.17 fold |  |  |  |  |  |  |  | FcγR reporter signaling, fold to wt-fucose [cont'd] [1]: 6.54 fold; FcγR reporter signaling, fold to wt-fucose [cont'd] [2]: 2.87 fold; fold to wt-fucose [8]: 0.8 fold |
| P245A_Q295E_S298N (antibody) |  |  |  |  |  |  |  |  |  |  |  |  |  | fold-change in binding vs wild-type IgG1 [10]: 0.34; fold-change in binding vs wild-type IgG1 [11]: 0.28; fold-change in binding vs wild-type IgG1 [12]: 0.89; fold-change in binding vs wild-type IgG1 [13]: 0.3; fold-change in binding vs wild-type IgG1 [14]: 0.1; fold-change in binding vs wild-type IgG1 [15]: 0.85; fold-change in binding vs wild-type IgG1 [16]: 0.31 |
| L328V_Q295E_S298N (antibody) |  |  |  |  |  |  |  |  |  |  |  |  |  | fold-change in binding vs wild-type IgG1 [10]: 0.28; fold-change in binding vs wild-type IgG1 [11]: 0.26; fold-change in binding vs wild-type IgG1 [12]: 0.79; fold-change in binding vs wild-type IgG1 [13]: 0.33; fold-change in binding vs wild-type IgG1 [14]: 0.08; fold-change in binding vs wild-type IgG1 [15]: 1.02; fold-change in binding vs wild-type IgG1 [16]: 0.32 |
| G236A_K334A_Q295E-afuc (antibody) | 27.5 fold | 3.75 fold | 1.62 fold | 0.55 fold | 5.32 fold | 7.93 fold |  |  |  |  |  |  |  | FcγR reporter signaling, fold to wt-fucose [cont'd] [1]: 12.7 fold; FcγR reporter signaling, fold to wt-fucose [cont'd] [2]: 5.54 fold; fold to wt-fucose [8]: 1.11 fold |
| L234D_G236D_K326E (antibody) |  |  |  |  |  |  |  |  |  |  |  |  |  | fold-change in binding vs wild-type IgG1 [10]: 0.35; fold-change in binding vs wild-type IgG1 [11]: 0.14; fold-change in binding vs wild-type IgG1 [12]: 0.6; fold-change in binding vs wild-type IgG1 [13]: 0.3; fold-change in binding vs wild-type IgG1 [14]: 0.05; fold-change in binding vs wild-type IgG1 [15]: 0.83; fold-change in binding vs wild-type IgG1 [16]: 0.28 |
| G236L (antibody) |  |  |  |  |  |  | 0.949 fold | 1.42 fold | 0.395 fold | 0.435 fold | 0.345 fold | 1.48 fold | 0.083 fold |  |
| C220P (antibody) |  |  |  |  |  |  | 0.991 fold | 1.04 fold | 1.21 fold | 1.17 fold | 0.99 fold | 0.761 fold | 1.33 fold |  |
| G446E (antibody) |  |  |  |  |  |  | 1.06 fold | 1.05 fold | 1.17 fold | 1.11 fold | 1.1 fold | 0.84 fold | 1.42 fold |  |
| R292P_G446E (antibody) |  |  |  |  |  |  | 0.884 fold | 0.45 fold | 0.562 fold | 0.628 fold | 0.779 fold | 0.391 fold | 0.916 fold |  |
| G236A_A330L_I332E (antibody) |  |  |  |  |  |  | 0.937 fold |  | 0.605 fold | 3.6 fold |  | -0.004 fold |  |  |
| G236A_Q295E_S298N (antibody) |  |  |  |  |  |  |  |  |  |  |  |  |  | fold-change in binding vs wild-type IgG1 [10]: 0.35; fold-change in binding vs wild-type IgG1 [11]: 1.82; fold-change in binding vs wild-type IgG1 [12]: 0.76; fold-change in binding vs wild-type IgG1 [13]: 0.65; fold-change in binding vs wild-type IgG1 [14]: 0.07; fold-change in binding vs wild-type IgG1 [15]: 0.93; fold-change in binding vs wild-type IgG1 [16]: 0.23 |
| G236A_R292P_Y300L-afuc (antibody) |  |  |  |  |  |  |  |  |  |  |  |  |  | fold-change (reference not given) [22]: 19.7 fold; fold-change (reference not given) [18]: 2.2 fold; fold-change (reference not given) [23]: 1.8 fold; fold-change (reference not given) [20]: 11.2 fold; fold-change (reference not given) [24]: 9.1 fold |
| G236A_R292P_G446E (antibody) |  |  |  |  |  |  | 0.851 fold | 0.986 fold | 0.512 fold | 4.54 fold | 0.552 fold | 0.099 fold | 0.415 fold |  |
| A330L_I332E-afuc (antibody) | 191 fold | 0.53 fold | 37.4 fold | 0.61 fold | 0.42 fold | 37.8 fold |  |  |  |  |  |  |  |  |
| G236A_L328V_Q295E-afuc (antibody) |  |  |  |  |  |  |  |  |  |  |  |  |  | fold-change (reference not given) [22]: 11.8 fold; fold-change (reference not given) [18]: 9.6 fold; fold-change (reference not given) [23]: 2.4 fold; fold-change (reference not given) [20]: 6.7 fold; fold-change (reference not given) [24]: 7.4 fold |
| A431G (antibody) |  |  |  |  |  |  | 0.916 fold | 1.38 fold | 1.5 fold | 1.76 fold | 1.23 fold | 0.824 fold | 1.61 fold |  |
| G236A_R292P-afuc (antibody) | 5.83 fold | 1.04 fold | 1.15 fold | 0.51 fold | 3.05 fold | 3.37 fold |  |  |  |  |  |  |  | FcγR reporter signaling, fold to wt-fucose [cont'd] [1]: 3.34 fold; FcγR reporter signaling, fold to wt-fucose [cont'd] [2]: 2.18 fold; fold to wt-fucose [8]: 0.73 fold |
| L234D_V264R_K326E (antibody) |  |  |  |  |  |  |  |  |  |  |  |  |  | fold-change in binding vs wild-type IgG1 [10]: 0.27; fold-change in binding vs wild-type IgG1 [11]: 0.14; fold-change in binding vs wild-type IgG1 [12]: 0.6; fold-change in binding vs wild-type IgG1 [13]: 0.25; fold-change in binding vs wild-type IgG1 [14]: 0.05; fold-change in binding vs wild-type IgG1 [15]: 0.83; fold-change in binding vs wild-type IgG1 [16]: 0.5 |
| R292P (antibody) |  |  |  |  |  |  | 0.898 fold | 0.454 fold | 0.541 fold | 0.577 fold | 0.79 fold | 0.549 fold | 0.917 fold | fold-change vs wt [4]: 0.45 fold; fold-change vs wt [6]: 0.54 fold; fold-change vs wt [7]: 0.58 fold |
| G236A_Y300L-afuc (antibody) | 30.1 fold | 3.95 fold | 2.55 fold | 0.93 fold | 14.9 fold | 13.7 fold |  |  |  |  |  |  |  | FcγR reporter signaling, fold to wt-fucose [cont'd] [2]: 3.49 fold; fold-change (reference not given) [22]: 30.1 fold; fold-change (reference not given) [18]: 4 fold; fold-change (reference not given) [23]: 2.6 fold; fold-change (reference not given) [19]: 0.9 fold; fold-change (reference not given) [20]: 14.9 fold; fold-change (reference not given) [24]: 13.7 fold; fold to wt-fucose [8]: 0.92 fold |
| K334A_Q295E_S298N (antibody) |  |  |  |  |  |  |  |  |  |  |  |  |  | fold-change in binding vs wild-type IgG1 [10]: 0.37; fold-change in binding vs wild-type IgG1 [11]: 0.22; fold-change in binding vs wild-type IgG1 [12]: 0.93; fold-change in binding vs wild-type IgG1 [13]: 0.28; fold-change in binding vs wild-type IgG1 [14]: 0.09; fold-change in binding vs wild-type IgG1 [15]: 0.91; fold-change in binding vs wild-type IgG1 [16]: 0.47 |

Source: patent US20260184814A1, “BROADLY NE[…] INFLUENZA NEURAMINIDASE” (priority 2022, published 2026)
